The target in this test is receptor binding domain (RBD) of the SARS-CoV-2 Spike protein (SARS-CoV-2, UniProt P0DTC2 319-541).

B1: nanobody NM1229 (VHH)
VHH: EVQLQESGGGLVQPGESLRLSCAASGRTHDWYTMGWFRQAPGKEREFVARINWSSGMTYYADSVKGRFTISRDNPKNTVYLQMNSLTPDDTAVYYCNVHPFTSPDYWGQGTRVTVSS
In the case of B1, the IC50 turned out to be 38 nM.

B2: nanobody NM1230 (VHH)
VHH: QVQLVESGGGLVRPGGSLRLSCVGSGFTFSGYAMNWYRQAPGKALELVAGISNAGDLTHYEEPMKGRVAISRANDKNTVYLQMDDLKPEDTAVYRCHAPGVRVGTGERKDVWGQGAQVTVSS
In turn, B2 registered an IC50 of 2.12 nM and a Kd of 8.23 nM.

In general, IC50 refers to the concentration that gives 50% inhibition. By Kd is commonly meant the equilibrium constant for the complex coming apart. Read a high Kd as weaker binding.

Source of the values: patent publication EP3970798A1 (NMI Naturwissenschaftliches und Medizinisches Institut an …, dated 2022).
